Measured values reported in the supplement of paper PMC11246515.
± gives the standard deviation of the averaged measurements.

Assay: total protein half-life in vivo (active degradation + dilution); higher = more stable protein
[1] = E. coli NCM3722 delta-clpP delta-lon delta-hslV, growth: N-lim chemostat, doubling time 6 h
[2] = E. coli NCM3722 delta-clpP, growth: N-lim chemostat, doubling time 6 h
[3] = E. coli NCM3722 delta-hslV, growth: N-lim chemostat, doubling time 6 h
[4] = E. coli NCM3722 delta-lon, growth: N-lim chemostat, doubling time 6 h
[5] = E. coli NCM3722 delta-smpB, growth: N-lim chemostat, doubling time 6 h
[6] = wild type E. coli NCM3722, growth: C-lim chemostat, doubling time 3 h
[7] = wild type E. coli NCM3722, growth: C-lim chemostat, doubling time 6 h
[8] = wild type E. coli NCM3722, growth: C-lim chemostat, doubling time 12 h
[9] = wild type E. coli NCM3722, growth: N-lim chemostat, doubling time 6 h
[10] = wild type E. coli NCM3722, growth: N-lim chemostat, doubling time 12 h
[11] = wild type E. coli NCM3722, growth: P-lim chemostat, doubling time 6 h
[12] = wild type E. coli NCM3722, growth: P-lim chemostat, doubling time 12 h

| Sequence | total protein half-life in vivo [1] | total protein half-life in vivo [2] | total protein half-life in vivo [3] | total protein half-life in vivo [4] | total protein half-life in vivo [5] | total protein half-life in vivo [6] | total protein half-life in vivo [7] | total protein half-life in vivo [8] | total protein half-life in vivo [9] | total protein half-life in vivo [10] | total protein half-life in vivo [11] | total protein half-life in vivo [12] |
| --- | --- | --- | --- | --- | --- | --- | --- | --- | --- | --- | --- | --- |
| MNTFSVSRLALALAFGVTLTACSSTPPDQRPSDQTAPGTSSRPILSAKEAQNFDAQHYFASLTPGAAAWNPSPITLPAQPDFVVGPAGTQGVTHTTIQAAVDAAIIKRTNKRQYIAVMPGEYQGTVYVPAAPGGITLYGTGEKPIDVKIGLSLDGGMSPADWRHDVNPRGKYMPGKPAWYMYDSCQSKRSDSIGVLCSAVFWSQNNGLQLQNLTIENTLGDSVDAGNHPAVALRTDGDQVQINNVNILGRQNTFFVTNSGVQNRLETNRQPRTLVTNSYIEGDVDIVSGRGAVVFDNTEFRVVNSRTQQEAYVFAPATLSNIYYGFLAVNSRFNAFGDGVAQLGRSLDVDANTNGQVVIRDSAINEGFNTAKPWADAVISNRPFAGNTGSVDDNDEIQRNLNDTNYNRMWEYNNRGVGSKVVAEAKK | 5.8 ± 0.063 h | 7.06 ± 1.3 h | 6.54 ± 0.33 h | 6.89 ± 0.2 h | 5.993 ± 0.019 h | 3.15 ± 0.05 h | 6.27 ± 0.39 h | 11.6 ± 0.95 h | 6.28 ± 0.13 h | 14.1 ± 0.59 h | 6.3 ± 0.14 h | 13.7 ± 0.19 h |
| MSVVISDAWRQRFGGTARLYGEKALQLFADAHICVVGIGGVGSWAAEALARTGIGAITLIDMDDVCVTNTNRQIHALRDNVGLAKAEVMAERIRQINPECRVTVVDDFVTPDNVAQYMSVGYSYVIDAIDSVRPKAALIAYCRRNKIPLVTTGGAGGQIDPTQIQVTDLAKTIQDPLAAKLRERLKSDFGVVKNSKGKLGVDCVFSTEALVYPQSDGTVCAMKATAEGPKRMDCASGFGAATMVTATFGFVAVSHALKKMMAKAARQG | 4.94 ± 0.44 h |  | 3.85 ± 1.2 h |  | 5.05 ± 0.58 h | 3.36 ± 0.59 h | 5.77 ± 0.26 h | 9.6 ± 0.78 h | 4.87 ± 0.32 h | 6.86 ± 1.1 h | 5.2 ± 0.15 h | 11.79 ± 0.028 h |
| MSSKEQKTPEGQAPEEIIMDQHEEIEAVEPEASAEQVDPRDEKVANLEAQLAEAQTRERDGILRVKAEMENLRRRTELDIEKAHKFALEKFINELLPVIDSLDRALEVADKANPDMSAMVEGIELTLKSMLDVVRKFGVEVIAETNVPLDPNVHQAIAMVESDDVAPGNVLGIMQKGYTLNGRTIRAAMVTVAKAKA | 6.35 ± 0.23 h | 6.61 ± 1.3 h | 5.31 ± 0.46 h | 5.19 ± 0.26 h | 4.79 ± 0.18 h | 3.024 ± 0.0063 h | 5.43 ± 0.17 h | 9.26 ± 0.18 h | 5.66 ± 0.14 h | 8.74 ± 0.79 h | 5.26 ± 0.24 h | 10.7 ± 0.15 h |
| MAYLVAVTACVSGVAHTYMAAERLEKLCLLEKWGVSIETQGALGTENRLADEDIRRADVALLITDIELAGAERFEHCRYVQCSIYAFLREPQRVMSAVRKVLSAPQQTHLILE | 4.98 h |  |  |  |  |  |  |  |  |  |  |  |
| MEQPVIPVRNIYYMLTYAWGYLQEIKQANLEAIPGNNLLDILGYVLNKGVLQLSRRGLELDYNPNTEIIPGIKGRIEFAKTIRGFHLNHGKTVSTFDMLNEDTLANRIIKSTLAILIKHEKLNSTIRDEARSLYRKLPGISTLHLTPQHFSYLNGGKNTRYYKFVISVCKFIVNNSIPGQNKGHYRFYDFERNEKEMSLLYQKFLYEFCRRELTSANTTRSYLKWDASSISDQSLNLLPRMETDITIRSSEKILIVDAKYYKSIFSRRMGTEKFHSQNLYQLMNYLWSLKPENGENIGGLLIYPHVDTAVKHRYKINGFDIGLCTVNLGQEWPCIHQELLDIFDEYLK |  |  |  |  |  | 3.05 ± 0.89 h | 5.31 h | > 16 h |  |  | 5.09 ± 0.42 h | 7.9 ± 0.14 h |
| MTELKNDRYLRALLRQPVDVTPVWMMRQAGRYLPEYKATRAQAGDFMSLCKNAELACEVTLQPLRRYPLDAAILFSDILTVPDAMGLGLYFEAGEGPRFTSPVTCKADVDKLPIPDPEDELGYVMNAVRTIRRELKGEVPLIGFSGSPWTLATYMVEGGSSKAFTVIKKMMYADPQALHALLDKLAKSVTLYLNAQIKAGAQAVMIFDTWGGVLTGRDYQQFSLYYMHKIVDGLLRENDGRRVPVTLFTKGGGQWLEAMAETGCDALGLDWTTDIADARRRVGNKVALQGNMDPSMLYAPPARIEEEVATILAGFGHGEGHVFNLGHGIHQDVPPEHAGVFVEAVHRLSEQYHR | 4.03 ± 0.26 h | 3.74 ± 0.17 h | 3.83 ± 0.17 h | 4.15 ± 0.56 h | 3.93 ± 0.27 h | 2.94 ± 0.43 h | 5.94 ± 0.61 h | 8.76 ± 0.76 h | 4.31 ± 0.093 h | 6.62 ± 0.27 h | 5.88 ± 0.075 h | 10.4 ± 0.69 h |
| MNQVAVVIGGGQTLGAFLCHGLAAEGYRVAVVDIQSDKAANVAQEINAEYGESMAYGFGADATSEQSVLALSRGVDEIFGRVDLLVYSAGIAKAAFISDFQLGDFDRSLQVNLVGYFLCAREFSRLMIRDGIQGRIIQINSKSGKVGSKHNSGYSAAKFGGVGLTQSLALDLAEYGITVHSLMLGNLLKSPMFQSLLPQYATKLGIKPDQVEQYYIDKVPLKRGCDYQDVLNMLLFYASPKASYCTGQSINVTGGQVMF | 4.14 h |  |  |  |  | 1.19 ± 0.41 h |  | 1.43 h |  |  |  |  |
| MKIILLFLAALASFTVHAQPPSQTVEQTVRHIYQNYKSDATAPYFGETGERAITSARIQQALTLNDNLTLPGNIGWLDYDPVCDCQDFGDLVLESVAITQTDADHADAVVRFRIFKDDKEKTTQTLKMVAENGRWVIDDIVSNHGSVLQAVNSENEKTLAALASLQKEQPEAFVAELFEHIADYSWPWTWVVSDSYRQAVNAFYKTTFKTANNPDEDMQIERQFIYDNPICFGEESLFSRVDEIRVLEKTADSARIHVRFTLTNGNNEEQELVLQRREGKWEIADFIRPNSGSLLKQIEAKTAARLKQ | 5.65 h | 5.01 ± 0.93 h |  | 6.249 ± 0.025 h | 5.65 ± 0.12 h | 3.56 h | > 8 h | 11.1 ± 0.5 h | 6.33 ± 0.27 h | 12.3 ± 1.8 h | 6.45 h | 11.28 ± 0.1 h |
| MIRTMLQGKLHRVKVTHADLHYEGSCAIDQDFLDAAGILENEAIDIWNVTNGKRFSTYAIAAERGSRIISVNGAAAHCASVGDIVIIASFVTMPDEEARTWRPNVAYFEGDNEMKRTAKAIPVQVA [P0A790] | 4.79 h |  | 1.54 ± 0.23 h | 6.3 h | 1.43 h | 1.68 ± 0.15 h | 3.1 h |  | 2.24 h | 2.2 h | 2.12 h | 4.54 ± 0.65 h |
